Square brackets hold non-standard residues; d marks the D form. Ends that are not written are not given here. SeMet = C[Se]CC[C@H](N)C(=O)O
B1: native KCa3.1-CC (C-terminal coiled-coil region of human KCa3.1, residues 376-415) (domain or fragment, UniProt O15554 376-415, looked up)
chain: MILYDLQQNLSSSHRALEKQIDTLAGKLDALTELLSTALG
notes: KCa3.1 (SK4, IK1), human, C-terminal coiled-coil region, residues 376-415; Crystallised without copper (apo); also called native, apo KCa3.1-CC; source: E. coli BL21-Gold(DE3)pLysS, purified (GST-trap, thrombin cleavage, Superdex 75); not shown: GST, N-terminal, cleaved
B2: SeMet-containing KCa3.1-CC (C-terminal coiled-coil region of human KCa3.1, residues 376-415) (domain or fragment, UniProt O15554 376-415, looked up)
chain: [SeMet]ILYDLQQNLSSSHRALEKQIDTLAGKLDALTELLSTALG
notes: KCa3.1 (SK4, IK1), human, C-terminal coiled-coil region, residues 376-415; residues 376-414 are in the atomic model; Crystallised in the presence of 3 mM CuCl2; a Cu(II) ion is coordinated by the four copies of His389; also called SeMet KCa3.1-CC; SeMet SK4-CC (w/copper); source: E. coli B834(DE3), PASM-5052 auto-induction medium, purified (GST-trap, thrombin cleavage, Superdex 75); not shown: …

What was measured:
[1] = target: the molecule itself; test: crystal structure; native KCa3.1-CC crystallised without copper (apo); 0.1 M imidazole (pH 6.5), 1.0 M sodium acetate; 1.75 Å, molecular replacement, only partially refined
[2] = target: the molecule itself; test: crystal structure; SeMet-containing KCa3.1-CC crystallised with 3 mM CuCl2; 0.1 M imidazole (pH 6.5), 1.0 M sodium acetate; space group P4212, 1.75 Å; four-helix bundle generated by the crystallographic four-fold axis

Row | Protein | binding result [1] | stoichiometry N [2]
1 | B1 | binds | –
2 | B2 | – | 4
